Laboratory results reported in the supplement of paper PMC9732359.
± gives the uncertainty stated by the source.

Test: protein stability index of a GFP-peptide fusion (yeast GPS) (PSI 1-4); higher = more stable; sorted into four equal gates, so the index is relative within each strain
In short: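 The protein stability index of a peptide was calculated by multiplying its read frequency in each gate by that gate's number and adding the products. The peptides were tiled 17-residue stretches of yeast proteins, fused downstream of GFP on a Cherry-expressing plasmid and carried in yeast as a pooled library. Mid-log cultures in leucine-free medium were sorted into four equal gates by GFP/Cherry ratio, and each gate's plasmids were PCR-amplified and Illumina-sequenced.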

| Sequence | protein stability index (doa10∆) | protein stability index (pdr5∆) | protein stability index (san1∆) | protein stability index (ubr1∆) |
| --- | --- | --- | --- | --- |
| IDNSPQAISYLHKLQRM [GRR1] | 2.96 ± 0.058 | 2.48 ± 0.047 | 2.4 ± 0.045 | 2.69 ± 0.039 |
| IDSVEVETNTTVLADEF [RPB3] | 2.96 ± 0.076 | 3.17 ± 0.071 | 3.09 ± 0.051 | 3.16 ± 0.037 |
| IDVDMDASPAPSNESCS [SRB5] | 2.6 ± 0.053 | 2.58 ± 0.05 | 2.66 ± 0.057 | 2.32 ± 0.049 |
| IEAEEAEEIGVEHLLRD [RPN8] | 3.1 ± 0.19 |  | 3.15 ± 0.13 | 3.23 ± 0.068 |
| IEANVTVKTSDDYVLRI [RPS1A] | 2.98 ± 0.035 | 2.9 ± 0.038 | 2.96 ± 0.036 | 2.726 ± 0.027 |
| IEDRDFLVRYACEPTAE [SIR3] | 2.28 ± 0.064 | 2.83 ± 0.067 | 2.53 ± 0.074 | 3.08 ± 0.069 |
| IEEQGWGGFPLDISVFL [TAF14] | 3.38 ± 0.063 | 3.4 ± 0.053 | 3.35 ± 0.048 | 3.33 ± 0.047 |
| IEIMGILMGFTLKDNIV [RRI1] | 2.46 ± 0.097 | 2.15 ± 0.076 | 2.81 ± 0.12 | 2.55 ± 0.083 |
| IEKFEQVPDSLDDQIFV [RPN6] | 3.31 ± 0.079 | 3.35 ± 0.065 | 3.53 ± 0.053 | 3.27 ± 0.079 |
| IEKNVMESIGSDILTAE [RRP4] | 2.78 ± 0.092 | 3.04 ± 0.19 | 2.95 ± 0.2 |  |
| IEKVDRENMICKIDFQK [RRI2] | 3.04 ± 0.11 | 3.03 ± 0.1 | 3.18 ± 0.063 | 3.15 ± 0.065 |
| IELSVPDRQSMDSRVAH [SRB5] | 3.11 ± 0.17 | 2.96 ± 0.14 | 3.17 ± 0.13 | 3.16 ± 0.089 |
| IEQCKHPLHELIIQYPP [ISW2] | 3.19 ± 0.1 | 2.82 ± 0.094 | 2.59 ± 0.1 | 3.1 ± 0.068 |
| IEQEKQEQQEQDKKKKS [PRE6] | 2.17 ± 0.069 | 1.82 ± 0.06 | 2.59 ± 0.077 | 1.59 ± 0.049 |
| IESQMRDLILTEYGRKY [PRP8] | 2.2 ± 0.1 | 2.04 ± 0.073 | 1.98 ± 0.098 | 3.03 ± 0.092 |
| IETEFLLFTVKLKGLMK [IRR1] | 3.12 ± 0.14 | 3.06 ± 0.22 | 2.98 ± 0.12 | 3.28 ± 0.12 |
| IETVDDKLKDIVGQTSR [ITC1] | 3.25 ± 0.07 | 3.01 ± 0.075 | 3.17 ± 0.086 | 3.03 ± 0.14 |
| IEWAEHHRDSNFPDEDD [SKP1] | 3.1 ± 0.065 | 3.17 ± 0.059 | 3.08 ± 0.046 | 3.33 ± 0.057 |
| IFGGAGGVPTTSFGQPQ [YOR098C/NUP1] | 1.57 ± 0.061 | 1.58 ± 0.074 | 1.55 ± 0.11 | 1.4 ± 0.053 |
| IFLHSLPVKEFQIIDTL [RPS2] | 2.49 ± 0.12 | 2.54 ± 0.089 | 2.44 ± 0.073 | 2.49 ± 0.061 |
| IFQAKRNSNPENTVGLI [RPN10] | 3.17 ± 0.1 | 3.27 ± 0.087 | 2.92 ± 0.074 | 3.21 ± 0.11 |
| IGGSDAAFEKRYRVDLL [RPO21] | 3.32 ± 0.074 | 3.39 ± 0.067 | 3.25 ± 0.04 | 3.32 ± 0.053 |
| IGGSLARIALRHLEKEG [RPS25A] | 2.52 ± 0.068 | 2.5 ± 0.054 | 1.82 ± 0.082 | 2.51 ± 0.06 |
| IGIAGAHRVRDLMDEEL [SKI6] | 3.38 ± 0.13 | 3.36 ± 0.11 | 2.94 ± 0.088 | 3.07 ± 0.13 |
| IGISIVGRFSTISSADF [ECM29] | 2.81 ± 0.24 | 2.54 ± 0.092 | 3.12 ± 0.3 | 2.26 ± 0.19 |
| IGLPRHSLAYLLENFAN [RRP6] | 1.67 ± 0.04 | 1.78 ± 0.041 | 1.64 ± 0.072 | 1.87 ± 0.025 |

| Sequence | protein stability index (doa10∆) | protein stability index (pdr5∆) | protein stability index (san1∆) | protein stability index (ubr1∆) |
| --- | --- | --- | --- | --- |
| IGSNGSGKSNFFAAIRF [SMC3] | 3.03 ± 0.068 | 3.07 ± 0.066 | 3.02 ± 0.05 | 3.05 ± 0.039 |
| IGSQRGRRLSMLASQAN [DSN1] | 1.75 ± 0.057 | 2.47 ± 0.068 | 1.88 ± 0.096 | 2.18 ± 0.047 |
| IHGQDFQFFPKELDALQ [ISW2] | 2.62 ± 0.048 | 2.75 ± 0.053 | 3.11 ± 0.037 | 2.78 ± 0.041 |
| IHLYMLTFHTLKKANII [YLR018C/POM34] | 1.31 ± 0.051 | 1.27 ± 0.06 | 1.21 ± 0.12 | 1.09 ± 0.042 |
| IHQNAGRLLRAMFEICL [BRR2] | 1.85 ± 0.053 | 1.75 ± 0.054 | 2.21 ± 0.063 | 2.83 ± 0.048 |
| IHSKSMSVERGIRWELI [RPT1] | 3.06 ± 0.068 | 3 ± 0.073 | 2.88 ± 0.071 | 3.04 ± 0.063 |
| IHSLIPVAKWFVKFITY [SIN4] | 2.7 ± 0.048 | 2.52 ± 0.04 | 2.77 ± 0.044 | 2.79 ± 0.04 |
| IHSMNENPTPEKGNAKM [SIR3] | 2.94 ± 0.087 | 2.67 ± 0.069 | 3.03 ± 0.059 | 2.87 ± 0.048 |
| IHVLEQDGGIMGSLING [SKI6] | 3.45 ± 0.09 | 3.1 ± 0.1 | 3.36 ± 0.082 | 3.18 ± 0.066 |
| IIELPNEKFEIELLSLD [SRB4] | 2.68 ± 0.056 | 2.99 ± 0.066 | 2.84 ± 0.052 | 2.68 ± 0.048 |
| IIGKTTPISPDEEELGQ [RPB2] |  |  | 2.81 ± 0.23 | 2.98 ± 0.29 |
| IIGPNGSGKSNMMDAIS [SMC1] | 3.06 ± 0.13 | 3.24 ± 0.089 | 3.03 ± 0.075 | 3.28 ± 0.05 |
| IIHFHSHPEKRMIPPRM [SSN3] | 3.09 ± 0.07 | 2.95 ± 0.067 | 3.06 ± 0.065 | 3.13 ± 0.049 |
| IIKENVKVARLAGKYIP [FAS1] | 1.73 ± 0.23 | 1.6 ± 0.27 |  | 1.82 ± 0.1 |
| IIKQENFNSVNDANITS [SSN2] |  | 1.1 ± 0.11 |  |  |
| IINKVLDYQETYVEELF [YJL039C/NUP192] | 2.2 ± 0.1 | 2.87 ± 0.15 | 2.76 ± 0.12 | 2.6 ± 0.075 |
| IINPHAIPSRMTVAHLI [RPB2] | 1.79 ± 0.054 | 2.06 ± 0.044 | 1.86 ± 0.076 | 2.1 ± 0.046 |
| IIVFGYPESISNELIEH [YDL088C/ASM4] | 2.12 ± 0.066 | 2.78 ± 0.049 | 2.63 ± 0.058 | 2.75 ± 0.054 |
| IKETKENDEEFYKNKYS [RPN2] | 1.34 ± 0.13 | 1.5 ± 0.19 | 1.31 ± 0.26 | 1.51 ± 0.21 |
| IKFFWNNTHVGRQFCNR [YLR018C/POM34] |  | 1.68 ± 0.14 | 1.74 ± 0.27 | 1.9 ± 0.1 |
| IKGSKLSLGEAFKKIDA [COR1] | 3.29 ± 0.28 |  | 2.29 ± 0.16 | 2.64 ± 0.093 |
| IKHSKCRQEFLERVKAN [RPL21A] |  | 3.1 ± 0.23 |  |  |
| IKIVYALTTIKGVGRRY [RPS18A] | 1.87 ± 0.12 | 1.95 ± 0.078 | 2.06 ± 0.17 | 1.61 ± 0.075 |
| IKVPTYIRKLISSGLLY [SRB8] | 1.38 ± 0.048 | 1.27 ± 0.07 | 1.38 ± 0.085 | 1.2 ± 0.067 |
| ILAMTYSENGKHDSLRY [RPN1] | 3.28 ± 0.23 |  | 2.73 ± 0.2 | 2.62 ± 0.29 |
| ILCGIQEYLNPVIDTQI [YDL116W/NUP84] |  | 2.12 ± 0.2 | 2.01 ± 0.17 |  |
